Test: yeast display, Sf9 membrane polyspecificity reagent, FACS + sequencing; frameworks hold sequencing errors
In short: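 Synthetic nanobody libraries on Saccharomyces cerevisiae BJ5465 were galactose-induced for 36–48 hours, stained 1 hour at 4 °C with 10% biotinylated, detergent-solubilized Sf9 membrane reagent and enriched on streptavidin microbeads. FACS then separated cells into low and high (top ~1%) gates by anti-HA (expression) and streptavidin (reagent binding) fluorescence. Genes were colony-PCR amplified, MiSeq 2 × 250 sequenced and CDR-length filtered. A clone's polyreactivity label is that of its gate of origin.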

Row | Sequence | polyreactivity (PSR sort gate)
1 | QFQLEESGGGLVQAGGSLRLSCAASGSTFSSYVMGWYRQAPGKERELVAAISSIGGSTYYADSVKGRFTISRDNAKNTVYLQMNSLKPEDTAVYYCAAEPPGSTYEGGYLGQGTQVTVSS | low polyreactivity
2 | QFQLVDSGGGLVHAGGSRSLSCADSGLIFHNNAMGWYRQAPGKEREFVARITRSGGTTYYADSVKGRFTISRDNAKNTVYLQMNSLKPEDTAVYYCAAEQSVSFLVFTGFKFDYWGQGTHVTVSS | low polyreactivity
3 | QFQLVDSGGGLVQAGGSLRLSCAASGRTFWFYGMGWYRQAPGKEREFVARISGSGGSKYYADSVKGRFTITRDNAKNTVYFQMNSLKPEDTAVYYCAKDNRYPYPSGLDYWGQGTQVTVSS | high polyreactivity
4 | QFQLVDSGRGLVQAGGSLRLSCAASGRTFPHYAMGWYRQAPGKERELVAAISSRGGSTYYADSVKGRFTISRDNVKNTVYLQMNSLKPEDTAVYYCAATVGLYRSREYGYWGQGTQVTVSS | low polyreactivity
5 | QFQLVESGGGIVQAGGSLRIAVRPPDLPSTLNHLGWSRQAPGKERSVVAAITRGGSTNYADSVKGRFTISRDNAKNTVYLQMNSLKQEDTAVYYCAAPYAGWRDGGDYWGQGTQVTVSS | low polyreactivity
6 | QFQLVESGGGLVPARGSLRLSCAASGLIFKRNAMGWYRQAPGKERELDASNSGRGGSTYYADSLTGRFTISRDNAKKTVYLQMNSLKPEDTAVYFCAADGPPLGRPSYRLFYGYDYWGQGSQVTVSS | high polyreactivity
7 | QFQLVESGGGLVQAGASLRLSCASSLSTFDHNAMGSYRQAPGKESELVAAISSSGGRTYYADSVKGRFTISRDNAKNTVYLQMNSLKPEDTAVYYCAAVVRRAPEFDYSGQGTQVTVSS | high polyreactivity
8 | QFQLVESGGGLVQAGGILRLSCAASGITFRIYAMGWYRQAPGKERELVAGISSSGSTNYADSVKGRFTISRESAKNTVYLQMNSLKPEDTAVYYCAADAFYKFDYWGQGTQVTESS | high polyreactivity
9 | QFQLVESGGGLVQAGGSHRLSCAASGRIVDYYAMGWYRQAPGKERDLVAAISTSGGSTYYADSVKGRFTISRDNAKITVYLLMNSLKPEDTAVYYCGKDITVTYPVLDYDYWGQCTQVTVSS | low polyreactivity
10 | QFQLVESGGGLVQAGGSLPLSCAASGSIFLWTAMGWYRQAPGKERELVAAITLRGGSTYYADSLKGRFTISRDNAKYAVYLQLNSLKPEDTAVFYCAADVFLLYDYWGQGTQVTVSS | low polyreactivity
11 | QFQLVESGGGLVQAGGSLRLICAASGIIFKLNAMGWYRQAPGIETELVAAITYRGGTTYYADSVKGRFTISRDNAKNTVYVQMNSLKPEDTAVYYCAVAVTSYSSKKLYYWGQGTQVTVSS | low polyreactivity
12 | QFQLVESGGGLVQAGGSLRLSCAASARTFYRYAMGWYRQAPGKERELVASINRGGSTIYADSVKGRFSISRDNAKNTVYLHMNSLKPEDTAVFYCACYCYCYWGQGTQVTVSS | low polyreactivity
13 | QFQLVESGGGLVQAGGSLRLSCAASGFIFSNYAMGWYRQAPGKERELVASISWGGGSTYYADSVKGRFTISRDNAKNTVYLQMNSLKPEDTAVYYCATVRSLYSYDYWGQGTQVTVSS | high polyreactivity
14 | QFQLVESGGGLVQAGGSLRLSCAASGFTFVSNDMGWYRQAPGKVRELVAAISQGGGSTYYADSVKGRFTISRDNAKNTVYLQMNSLKPEDNAVYYCDAEDVYFGYDYSGQGTQVTVSS | low polyreactivity
15 | QFQLVESGGGLVQAGGSLRLSCAASGFTITFYAKGWYRQAPGKERELVAAIRTSDGRTYYADSVKGRFTISRDNAKNTVYLQMNSLKPEDTAVYYCAAQVYRPRARYYEYDYWGQGTQVTVSS | high polyreactivity
16 | QFQLVESGGGLVQAGGSLRLSCAASGFTIYIYAKGWYRQAPGKERELVAAINFRGGSTYYADSVKGRFTISGDNAKKTVYLQLNSLKPEDTAVYYCAAVPRTYSGYYYWGQGTQVSVSS | high polyreactivity
17 | QFQLVESGGGLVQAGGSLRLSCAASGIIDGNARGWYRQAPGKEREFVATISVNDGNTYYADSVKGRFTISRDNAKNTVYLQMNSLKPEDTAVSYCATPTVYVPIPDLGDYWGQGTQVTVSS | low polyreactivity
18 | QFQLVESGGGLVQAGGSLRLSCAASGIIFDYNAMGWYRQAPGKERELVAAITRGGSTYYADSVNGRFTISRDNAKNTVYVQMTSLKPEDTAVYYCKAVLPVHWSWYDYWGQGTQVTVSS | low polyreactivity
19 | QFQLVESGGGLVQAGGSLRLSCAASGIIFNRNVMRWYRQAPAKERELVAAITWGGGRTYYADSVKGRFTISRDNAKNTVYLQMNSLIPVDTAVYFCAARSRGSSRFDYWGQGTQVTVSS | high polyreactivity
20 | QFQLVESGGGLVQAGGSLRLSCAASGIIFRYYGMGWYRQAPGKERELVARILWTGGSTYYADSVKGRFTISRDNAKNTVYFQMNSLKPEDTAVYYSAADIWQYSRIANYHPYEYWGQGTQVTVSS | low polyreactivity
21 | QFQLVESGGGLVQAGGSLRLSCAASGITFVDNAMGWYRQAPGKERELVAAITNSGSTYADSVKGRFTISRDNAKNTVYVQMNSLKPEDTAVYYCAADYYILLTKSDRLFGSWGQGTQVTVSS | low polyreactivity
22 | QFQLVESGGGLVQAGGSLRLSCAASGNTFINYAMGWYRQATRKEREVVAAISKRGGSTYYADSVKGRFTISRDNAKNTVYLQMNSLKPEDTAVYYCAARLKTYKEGDYCGQGTQVTVSS | high polyreactivity

Row | Sequence | polyreactivity (PSR sort gate)
23 | QFQLVESGGGLVQAGGSLRLSCAASGRIFKTYTMGWYRQAPGKERELVAVITSGGGTYYADSVKGRFTISRDNAKNTVYLQMNSLKPEDTAVYYCAARGMESPYGYWGQGTQVTVSS | low polyreactivity
24 | QFQLVESGGGLVQAGGSLRLSCAASGRIFSLNAMGWYRQAPGKESELVAAITSTGGTTYYADSVKGRFTISRDNAKNTVYLQMNSLKPEDTAVYYCAADYYSYAWHGWYYSDHYDYWGQGTQVTVSS | low polyreactivity
25 | QFQLVESGGGLVQAGGSLRLSCAASGRIFTYYAMGWYRQAPGKEWELVAAISTSGGSTYYADSVKGRFTISRDNANNTVYLQMNSLKPEDTAVYYCAKVYPPRYYRDYNYWGQGTQVTVSS | high polyreactivity
26 | QFQLVESGGGLVQAGGSLRLSCAASGRIFVINAMGWYRKATGIETELVAAISSSGGSTSYADSVKGRFTISRDNAKNTVYLQMNSLKPEDTAVYYCADKPRVRRDDGYYWGQGTLVTVSS | high polyreactivity
27 | QFQLVESGGGLVQAGGSLRLSCAASGRIFYPYAMGWYRQATGKEREFVATIRARGGDSTSYADSVKGRFTISRDNAKNTVYLQMNSLKPEDTGVYYCAALFYTYRWRYYVYHLDYWGHGTQVTVSS | low polyreactivity
28 | QFQLVESGGGLVQAGGSLRLSCAASGRIFYYNAMGWDRQAPGKERELVASISTGGGSTYYADSVKGRFTISRDNAKNTVYLQMNSLKTEDTAVYYCAARALTRSVPYGFYYWGQGTQVTVSS | high polyreactivity
29 | QFQLVESGGGLVQAGGSLRLSCAASGRTFAWNAMGWYRQAPGKERELVAAISYNGGRTYYADSVKGRFTISRDNAKNTVYFQMNSLKPEDTAVYYCAAQRYGYWGQGTQVTVSS | high polyreactivity
30 | QFQLVESGGGLVQAGGSLRLSCAASGRTFGFYAMGWYRQAPGKERELVASITWRGGRTYYADSVKGRFTISRDNAKNTVYLQMNSLKPEDTAVYYCAAVTFSYDGYDYWGQGTQVTVSS | low polyreactivity
31 | QFQLVESGGGLVQAGGSLRLSCAASGRTFGVYAMGWYRQAPGKERELVAAIRWSGGGTYYADSVKGRFTISRDNAKNTVYLQMNSLKPEDTAVYYCAADSLLVLFDYWGQGTQVTVSA | low polyreactivity
32 | QFQLVESGGGLVQAGGSLRLSCAASGRTFRGYAMGWYRQAPGKERELVPAITWRGGSTYYADSVKGRFTISRDNAKNTVYLQMKSLKPEDTAVYYCNTLVWSYLGGYYSRYDYWGQGTQVTVSS | high polyreactivity
33 | QFQLVESGGGLVQAGGSLRLSCAASGRTFRGYAMGWYRQATGTERELVAAITWRGGSTYYADSVKGRFTISRDNEKNTVYLQMNSLKPEDTAVYYCNTLVWSYLGGYYSRYDYWGQGTQVTVSS | high polyreactivity
34 | QFQLVESGGGLVQAGGSLRLSCAASGRTLYGYAMGWYRQAPGKERELVAVISGRGGSTYYADSVKGRFTISRDNAKNTVYLQMNSLKPEDTAAYFCAAVVHQGLSVRYGYWGQGTQVTVSS | high polyreactivity
35 | QFQLVESGGGLVQAGGSLRLSCAASGSIFDYYDLGWSRKAPGKERELGAAINWSGGITYYADSVKGRFTISRDNAKNTVYLQMNSLKPEDTGVYYCAADWYQWVYSSSITSFDYWGQGTQVTVSS | low polyreactivity
36 | QFQLVESGGGLVQAGGSLRLSCAASGSIFGGYAMGWYRQAPGKEREFVAAITRSGVSTYYADSVKGRFTISRDNEKNTVYLQMNSLKPEDTAVYYCAADQTAWRLRVYLRQYRYEYWGQGTQVTVSS | high polyreactivity
37 | QFQLVESGGGLVQAGGSLRLSCAASGSIFGGYAMGWYRQAPGKERELVAAISYRGASTYYADSVKGRFTISRDNAKNTVYLLMNSLKPEDTAVYYCAVAARTRARFLYGYDYWGQGTQVTVSS | low polyreactivity
38 | QFQLVESGGGLVQAGGSLRLSCAASGSIFKRYAMGWYRQAAGKERELVAAISSRGGNTYYADSVKGRFTISRDNAKNTVYLQMNSLKPEDTAVYYCAAYLWKSKRKLDYWGQGTQVTVSS | high polyreactivity
39 | QFQLVESGGGLVQAGGSLRLSCAASGSIFKYYVMGWYRQAPGNERELVATITSDGGTNYADSVKGRFTISRDNAKNTVYLQMNSLKPEDTAVYYCNAASRRGSRKQAKYDYWGQGTQVTVSS | low polyreactivity
40 | QFQLVESGGGLVQAGGSLRLSCAASGSIFQSYAMVWYRQAPGKERELVAAITRSGGRTYYADSVKGRFTISRDNAKNTVYLQMNSLKPEDTAVYFCAAFGWGYGYWGQGTQVTVSS | high polyreactivity
41 | QFQLVESGGGLVQAGGSLRLSCAASGSTFGVYAMGWYRQAPGKERELVATINSGGSTNYADSVKGRFTISRDNAKNTVYLQMNSLKPEDTAVYYCAAGPFWQDFYVYEYDYWGQGTQVTVSS | low polyreactivity
42 | QFQLVESGGGLVQAGGSLRLSCAASGSTFNYNAMGWYRQAPGIERELVAAISSSAGSTYYADSVKGRFTISRDNAKNTVYLQMNILKPEDTAVYYCANGGSSRVRTEGDYWGQGTQVTVSS | low polyreactivity
43 | QFQLVESGGGLVQAGGSLRLSCAASGSTFVYNAMGWDRHAPGKERELVAAISRGGGITYYADSVKGRFTISRDKAKNSVYFQMHSLKPEDTAVYYCQYLSRGLNTYRSSQGDDDYWGHGTQVTVSS | high polyreactivity

Reference: the nanobody polyreactivity screen of Harvey et al. (2022)
